This note sets out measurements from article PMC4165446.

Common to all, as to assay: other fluorescence titration
Assay [1] deals with FIH-Gln239 → His variant (human).
The target in assay [2] is FIH-Gln239 → Asn variant (human).
Assay [3] addresses FIH-Gln239 → Glu variant (human).
The target in assay [4] is FIH-Gln239 → Ala variant (human).

On to DESGLPQLTSYDAEVNAPIQGSRNLLQGEELLRALDQVN [39-mer CTAD peptide (C-terminal activation domain of human HIF1α, HIF1α 788–826, Cys800 → Ala)], for which the Kd (as a rule, the concentration at which binding is half-saturated) was 64 µM in assay [1], 98 µM in assay [2], 75 µM in assay [3] and 100 µM in assay [4].
